Results from US20230357425A1 (HARBOUR BIOMED SHANGHAI, published 2023).

The binders below were run against T1, Cynomolgus monkey CD73 on HEK293-cynoCD73 stable cell line (cynomolgus monkey) (assay: flow cytometry on HEK293-cynoCD73 stable cells).
T1 construct: whole, on cells
Protocol: Binding of antibodies to hCD73 and cynoCD73 expression in stable cell line was characterized by Flow cytometry. The cells were incubated with various concentration antibodies (the top concentration was 50 nM, 8 points, dilution factor 3), then incubate for 1 h at 4° C. Wash two times by PBS, then add the secondary antibody Goat anti-human(H+L) (Thermo fisher, A11013), incubate for 30 min at 4° C. And the fluorescence intensity was read by FACS Machine (BD FACS CantoII). A plot of median fluorescence intensity and the binding EC50 were fitted and calculated by GraphPad Prism 5.

EC50 | Binder
0.323 nM | PR000506 (antibody, human IgG1, kappa, L234A L235A, V domains shown, Recombinant antibody from hybridoma clone 38H6; also called 38H6E5 (clone name)) VH: QVQLVESGGGVAQPGRSLSLSCAASGFTFSDYGMHWVRQAPGKGLEWVALIWYDGSFEYYADSVKGRFSISRDNSKNTLYLQMNSLRAEDTAVYYCVRDGQWGSRLDYWGQGTLVTVSS VL: KIVMTQSPATLSLSPGERATLSCRASQSVSRYLAWYQQKPGQAPRLLIYDASNRATGIPARFSGSGSGTDFTLTISSLEPEDFAVYYCQQRSNWIFTFGPGTKVDIKR
0.515 nM | PR000849 (antibody, human IgG1, kappa, L234A L235A, V domains shown, PTM-removal variant of PR000851 (heavy chain G55A, D99E)) VH: QVQLVESGGGVAQPGRSLSLSCAASGFTFSDYGMHWVRQAPGKGLEWVALIWYDASFEYYADSVKGRFSISRDNSKNTLYLQMNSLRAEDTAVYYCVREGQWGSRLDYWGQGTLVTVSS VL: EIVLTQSPATLSLSPGERATLSCRASQSVSRYLAWYQQKPGQAPRLLIYDASNRATGIPARFSGSGSGTDFTLTISSLEPEDFAVYYCQQRSNWIFTFGPGTKVDIKR
0.475 nM | PR000844 (antibody, human IgG1, kappa, L234A L235A, V domains shown, PTM-removal variant of PR000506 (heavy chain D54E, G100A)) VH: QVQLVESGGGVAQPGRSLSLSCAASGFTFSDYGMHWVRQAPGKGLEWVALIWYEGSFEYYADSVKGRFSISRDNSKNTLYLQMNSLRAEDTAVYYCVRDAQWGSRLDYWGQGTLVTVSS VL: KIVMTQSPATLSLSPGERATLSCRASQSVSRYLAWYQQKPGQAPRLLIYDASNRATGIPARFSGSGSGTDFTLTISSLEPEDFAVYYCQQRSNWIFTFGPGTKVDIKR
0.623 nM | Tab1 (antibody, human IgG1, lambda, V domains shown, also called PR002078; MEDI9447(TAB1)) VH: EVQLLESGGGLVQPGGSLRLSCAASGFTFSSYAYSWVRQAPGKGLEWVSAISGSGGRTYYADSVKGRFTISRDNSKNTLYLQMNSLRAEDTAVYYCARLGYGRVDEWGRGTLVTVSS VL: QSVLTQPPSASGTPGQRVTISCSGSLSNIGRNPVNWYQQLPGTAPKLLIYLDNLRLSGVPDRFSGSKSGTSASLAISGLQSEDEADYYCATWDDSHPGWTFGGGTKLTVLG
